Results as given in the supplement of paper PMC10126150.
± gives the standard deviation of the averaged measurements.

tested on: ATP; test: switch fluorescence ratio, 500 uM ATP over buffer (Cy3 cluster intensity, sum of 5 cycles each) (fold (ratio)); higher = stronger signal-on switching upon ATP binding; sequences stand for … in TCGTCGGCAGCGTCAGATGTGTATAAGAGACAGTTTTTTTTTTTTTTTTTTTTTTTTT…TC; details: aptamer strand: ATP DNA aptamer (quencher-CACCTGGGGGAGTATTGCGGAGGAAGG + anchor), 100 nM annealed; ATP concentration: 500 uM
Procedure, shortened: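 After annealing to 100 nM quencher-labelled ATP aptamer, Cy3-labelled switching-strand clusters on a modified Illumina MiSeq flow-cell were imaged in selection buffer. A second image followed after 15 min with 500 uM ATP at 22 °C, and five such buffer/ATP cycles were done, each separated by NaOH stripping and re-annealing. The fluorescence ratio, averaged per switch-domain sequence, is summed target-cycle over summed buffer-cycle Cy3 intensity per cluster, with clusters outside 100-1000 RFU excluded.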
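Note: ATP exposure 15 min at 22 °C before imaging.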

Sequence | switch fluorescence ratio
AAAAAAAACC | 1.4 ± 0.33
AAAAAAAATG | 0.9991 ± 0.0042
AAAAAAATGG | 1.01 ± 0.041
AAAAAAATTG | 1 ± 0.017
AAAAAACGTA | 1.08 ± 0.1
AAAAAAGAAG | 1.01 ± 0.021
AAAAACGTAA | 1.1 ± 0.061
AAAAAGATTG | 1.06 ± 0.08
AAAAAGGGAA | 0.986 ± 0.02
AAAAAGGGCC | 1.009 ± 0.0089
AAAAATAGTG | 1.036 ± 0.0098
AAAAATGGGA | 0.962 ± 0.044
AAAAATGTCC | 1.07 ± 0.03
AAAAATTATT | 1.006 ± 0.0065
AAAAATTCTG | 1.02 ± 0.014
AAAAATTTAG | 0.994 ± 0.034
AAAACAAGGG | 1.01 ± 0.012
AAAACACTGG | 1.06 ± 0.053
AAAACCGAAA | 1.11 ± 0.1
AAAACCGGGA | 1.32 ± 0.52
AAAACCGTGT | 1.05 ± 0.04
AAAACGGCTC | 1.01 ± 0.0097
AAAACTTTTA | 1.02 ± 0.04
AAAAGAAAAG | 1.01 ± 0.051
AAAAGAACGC | 1.05 ± 0.097

Sequence | switch fluorescence ratio
AAAAGAAGCA | 0.948 ± 0.026
AAAAGAATAT | 1 ± 0.019
AAAAGAATCG | 0.996 ± 0.049
AAAAGAGAAG | 1 ± 0.011
AAAAGAGGCA | 1.02 ± 0.025
AAAAGAGGGT | 1.03 ± 0.048
AAAAGAGGTT | 0.9996 ± 0.0072
AAAAGAGTAT | 1 ± 0.016
AAAAGATTTT | 1.06 ± 0.14
AAAAGCGCGG | 1.13 ± 0.074
AAAAGCTCCG | 1.05 ± 0.033
AAAAGCTGGG | 1.02 ± 0.051
AAAAGGGA | 0.982 ± 0.046
AAAAGGGACG | 1.05 ± 0.12
AAAAGGGCGG | 1.01 ± 0.023
AAAAGGGCGT | 0.9944 ± 0.0066
AAAAGGTTGG | 0.997 ± 0.015
AAAAGGTTTG | 1.022 ± 0.0081
AAAAGTAAAA | 1.03 ± 0.061
AAAAGTCAAT | 1.004 ± 0.0089
AAAAGTCAGT | 0.988 ± 0.053
AAAAGTCGCT | 1.03 ± 0.025
AAAAGTCGGC | 1.04 ± 0.057
AAAAGTTCGT | 0.983 ± 0.024
AAAAGTTGTA | 1.01 ± 0.027

Sequence | switch fluorescence ratio
AAAATAAAG | 0.947 ± 0.077
AAAATAAAGG | 0.976 ± 0.023
AAAATATGCT | 1 ± 0.049
AAAATCAAAT | 1.02 ± 0.019
AAAATCAGCG | 1 ± 0.051
AAAATCCTTG | 1.01 ± 0.04
AAAATCGGTG | 1.01 ± 0.068
AAAATCTAGT | 1.014 ± 0.0081
AAAATCTGGT | 1.03 ± 0.015
AAAATGAGCC | 1.036 ± 0.00036
AAAATGATCG | 1.006 ± 0.0074
AAAATGGATT | 0.995 ± 0.055
AAAATGGTCA | 1.0102 ± 0.00092
AAAATGTAGA | 0.9919 ± 0.0016
AAAATTAAGA | 0.982 ± 0.025
AAAATTAAGC | 1.01 ± 0.051
AAAATTCAAG | 0.983 ± 0.016
AAAATTCAGG | 1.02 ± 0.011
AAAATTCTGC | 1.06 ± 0.022
AAAATTGGGC | 1.08 ± 0.02
AAAATTGGGG | 1.02 ± 0.039
AAAATTTATG | 1.01 ± 0.038
AAACAGATAA | 1.04 ± 0.084
AAACAGCCGG | 1.03 ± 0.0074
AAACAGCTCA | 0.994 ± 0.027

Sequence | switch fluorescence ratio
AAACCAGCCC | 1.21 ± 0.21
AAACCTGGCT | 1.41 ± 0.034
AAACCTGGGT | 1.03 ± 0.025
AAACGAAATT | 1.03 ± 0.068
AAACGAAGGA | 1.09 ± 0.069
AAACGCGTTG | 0.9955 ± 0.0011
AAACGGCGGC | 1.05 ± 0.041
AAACGGGGAC | 1.07 ± 0.15
AAACGGGTGC | 1.27 ± 0.29
AAACGGTATT | 1.09 ± 0.083
AAACGGTTTC | 0.993 ± 0.036
AAACGTTAGC | 1.03 ± 0.052
AAACTAAGAA | 1 ± 0.016
AAACTCGGAC | 1.143 ± 0.0053
AAACTCTGCG | 1.05 ± 0.026
AAACTGAATA | 1.03 ± 0.016
AAACTGATGC | 1.03 ± 0.052
AAACTGCTCC | 1.517 ± 0.012
AAACTGTAAA | 1.08 ± 0.045
AAACTGTATT | 1.08 ± 0.019
AAACTTAATA | 1.14 ± 0.16
AAACTTGCCC | 1.09 ± 0.012
AAAGAAAAGG | 0.989 ± 0.0065
AAAGAAGGTA | 1 ± 0.026
AAAGAATAAA | 1.022 ± 0.0089
